This series concerns the molecule itself. The series is described as follows: size-exclusion chromatography of the PR-LBD/tanaproget complex.

B1: Human progesterone receptor ligand binding domain (PR-LBD), polypeptide following thrombin cleavage of the GST fusion (receptor)
chain: GSPGQDIQLIPPLINLLMSIEPDVIYAGHDNTKPDTSSSLLTSLNQLGERQLLSVVKWSKSLPGFRNLHIDDQITLIQYSWMSLMVFGLGWRSYKHVSGQMLYFAPDLILNEQRMKESSFYSLCLTMWQIPQEFVKLQVSQEEFLCMKVLLLLNTIPLEGLRSQTQFEEMRSSYIRELIKAIGLRQKGVVSSSQRFYQLTKLLDNLHDLVKQLHLYCLNTFIQSRALSVEFPEMMSEVIAAQLPKILAGMVKPLLFHKK
notes: In the size-exclusion run and in the crystal each chain carried the small molecule tanaproget; also called human PR-LBD; PR-LBD (675-933)
For the protein B1, the binding result is “binds”.

The values are drawn from patent publication US20060074081A1 (Pfizer, published 2006).
